Data on four compounds can be found in publication PMC3478187, “PEGylation, increasing specific activity and multiple dosing as strategies to improve the risk-benefit profile of targeted radionuclide therapy with ^177Lu-DOTA-bombesin analogues” (EJNMMI Research, 2012).

Like-named read-outs stand apart in the source and are kept apart here.

One data set deals with PC-3 xenografts. Conditions: ref [24]; cited from earlier work. The text has this: Comparing our study with the therapy studies with ^177Lu-AMBA [23], ^177Lu-DOTA-PESIN [25] (2 × 28 MBq, 0.2 nmol) and ^177Lu-DOTA-8-AOC-BN(7–14), we found the tumour growth inhibition with our PEGylated BN analogue to be lower than with AMBA (approximately 73% vs. approximately 82%) but higher than with DOTA-PESIN (approximately 73% vs. approximately 45%) and roughly the same as with ^177Lu-DOTA-8-AOC-BN(7–14) (approximately 73% vs. approximately 79%) 3 weeks after the first dose. However, such a comparison is not fully conclusive since these therapy studies differ in tumour size at ...

For data set [1] the following is noted: cited from earlier work; for GI uptake: HPLC purified.
Procedure: The biodistribution data, in which 0.002 nmol of ^177Lu-AMBA and ^177Lu-DOTA-8-AOC-BN(7–14) (HPLC purified) was injected per mouse [23], and the data of ^177Lu-DOTA-PESIN (0.2 nmol peptide) [25] were compared with our biodistribution data, in which 0.075 nmol of the ^177Lu-labelled BN analogues were injected. This 0.075 nmol is the nearest possible approximation to the 0.002 nmol without HPLC purification, which is desired in clinics.
Another data set deals with T1, BN2/GRP receptors (Homo sapiens, UniProt P30550).
T1 construct: Since IC50 determination was done on whole PC-3 cells; endogenous in cells; host or cells: PC-3 cells (human prostate carcinoma)
The data set can be described thus: Apparent receptor affinity (IC50), displacement of ^99mTc-BN(7-14) on whole PC-3 cells. Type of data set: binding. On the procedure: Material & Methods: PC-3 cells at confluence were placed in 48-well plates and left to attach overnight. […] After 1 h incubation at 37°C, the cells were twice washed with cold PBS and solubilized by adding 400 μl (2 x) of 1 N NaOH at 37°C. The bound radioactivity was measured in the gamma counter. The experiments were performed in triplicate.

For data set [2] the following is noted: cited from earlier work.
The mark [3] stands for this setting: 1 h p.i., 0.002 nmol per mouse, ref [23].
[4] abbreviates: 24 h p.i., 0.002 nmol per mouse, ref [23].

T1 sequence (P30550 whole entry): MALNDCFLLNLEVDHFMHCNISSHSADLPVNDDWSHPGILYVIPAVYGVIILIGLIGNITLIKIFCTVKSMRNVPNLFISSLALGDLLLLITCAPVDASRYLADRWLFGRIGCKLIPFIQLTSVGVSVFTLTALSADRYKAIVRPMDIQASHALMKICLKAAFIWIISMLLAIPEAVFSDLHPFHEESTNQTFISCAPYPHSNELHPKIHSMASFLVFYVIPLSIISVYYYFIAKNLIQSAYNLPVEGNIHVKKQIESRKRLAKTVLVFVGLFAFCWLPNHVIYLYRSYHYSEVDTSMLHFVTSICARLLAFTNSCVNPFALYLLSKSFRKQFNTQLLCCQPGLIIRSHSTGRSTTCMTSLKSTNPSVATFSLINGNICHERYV

“DOTA-8-AOC-BN(7–14)NH2 [^177Lu-DOTA-8-AOC-BN(7–14)]”: the “tumour growth inhibition 3 weeks after the first dose” value with PC-3 xenografts is on record as “approximately 79%”. Besides, in data set [1] (setting [3]), the GI uptake is 9.7 %ID and the tumour uptake is recorded as 2.84 ± 1.65 % ID/g. Besides, the GI uptake in data set [1] (setting [4]) was 1.7 % ID.

What is called IC50 is the concentration needed to halve the response being measured. Consider `CCCC[C@H](NC(=O)[C@H](CC1CCCCC1)NC(=O)[C@H](Cc1c[nH]cn1)NC(=O)CNC(=O)[C@@H](NC(=O)[C@H](C)NC(=O)[C@H](Cc1c[nH]c2ccccc12)NC(=O)[C@H](CCC(N)=O)NC(=O)CCNC(=O)CCNC(=O)CC(CCCCN)NC(=O)CN1CCN(CC(=O)O)CCN(CC(=O)O)CCN(CC(=O)O)CC1)C(C)C)C(N)=O` (stereo partly drawn) [DOTA-Lys-BN, DOTA-β^3hLys-βAla-βAla-Gln^7-Trp^8-Ala^9-Val^10-Gly^11-His^12-Cha^13-Nle^14-NH2], for which, at BN2/GRP receptors, the IC50 is 2.03 ± 0.42 nM.

As for “DOTA-15-amino-4,7,10,13-tetraoxapentadecanoic acid-Gln-Trp-Ala-Val-Gly-His-Leu-Met-NH2 [^177Lu-DOTA-PESIN]”, the “half-life (t1/2) in human plasma” value in data set [2] (ref [25]) is given as 8.4 h. Besides, in data set [1] (1 h p.i., 0.2 nmol peptide, Gelofusine and polyglutamic acid co-administered, ref [25]), the kidney uptake is given as 3.8 ± 0.34 %ID/g. For the same compound, the tumour uptake in data set [1] (1 h p.i., 0.2 nmol peptide, ref [25]) is 11.6 ± 1.4 %ID/g.

As for “DO3A-CH2CO-8-aminooctanoyl-Gln-Trp-Ala-Val-Gly-His-Leu-Met-NH2 [^177Lu-AMBA]”, the “half-life (t1/2) in human plasma” value in data set [2] (ref [23]) is listed as 38.8 h. For the same compound, in data set [1] (setting [3]), the GI uptake is 11.2 %ID and the tumour uptake is reported as 6.35 ± 2.23 % ID/g. In addition, the GI uptake in data set [1] (setting [4]) was 5.8 % ID.
